Measured values: paper PMC4666351, “A novel transcriptional regulator of L-arabinose utilization in human gut bacteria”

T1: BtAraR F49Q (Bacteroides thetaiotaomicron (VPI-548 …, UniProt Q8AAV8 1-225, F49Q))
T1 sequence: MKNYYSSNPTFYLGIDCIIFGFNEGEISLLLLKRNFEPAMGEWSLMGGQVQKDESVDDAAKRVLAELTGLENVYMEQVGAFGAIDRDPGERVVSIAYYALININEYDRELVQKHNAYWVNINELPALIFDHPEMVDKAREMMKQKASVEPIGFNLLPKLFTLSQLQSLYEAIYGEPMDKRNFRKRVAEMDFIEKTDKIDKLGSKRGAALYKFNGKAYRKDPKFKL

T2: BtAraR R34N (Bacteroides thetaiotaomicron (VPI-548 …, UniProt Q8AAV8 1-225, R34N))
T2 sequence: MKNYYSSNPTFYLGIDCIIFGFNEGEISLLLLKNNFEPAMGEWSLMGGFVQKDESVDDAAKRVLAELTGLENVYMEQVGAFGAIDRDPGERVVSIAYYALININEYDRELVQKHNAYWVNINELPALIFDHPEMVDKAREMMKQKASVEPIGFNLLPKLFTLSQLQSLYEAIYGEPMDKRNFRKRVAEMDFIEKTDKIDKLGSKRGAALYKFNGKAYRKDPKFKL

T3: BtAraR V92D (Bacteroides thetaiotaomicron (VPI-548 …, UniProt Q8AAV8 1-225, V92D))
T3 sequence: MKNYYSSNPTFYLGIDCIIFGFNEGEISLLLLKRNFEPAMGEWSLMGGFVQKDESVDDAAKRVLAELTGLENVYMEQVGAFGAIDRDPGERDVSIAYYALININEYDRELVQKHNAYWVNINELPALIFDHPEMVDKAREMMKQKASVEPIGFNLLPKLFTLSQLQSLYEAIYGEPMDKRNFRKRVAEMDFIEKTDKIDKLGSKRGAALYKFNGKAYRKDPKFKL


Key:
[1] = target: BtAraR (BT0354), NrtR family transcription factor of Bacteroides thetaiotaomicron (B. thetaiotaomicron); assay: crystal structure; four crystal forms of SeMet BtAraR: apo-1 (R3), apo-2 (I2_(1)3), complex with a 27-bp DNA duplex (P23), complex with L-arabinose (P2_(1)); data at 100 K
[2] = target: T1, BtAraR F49Q; assay: EMSA; 0.5 mM L-arabinose, 1 uM protein; EMSA: 20 mM Tris-HCl pH 8.0, 150 mM KCl, 5 mM MgCl2, 1 mM DTT, 0.05% NP-40, 2.5% glycerol, 37 C, 30 min; DNA 0.2 nM (0.16 nM in Fig S4), protein 0.25-1 uM; conditions: protein: recombinant; chain copies: 2; label: 5'-biotin on one strand; blunt
[3] = target: T2, BtAraR R34N; assay: as above; conditions: protein: recombinant; chain copies: 2; label: 5'-biotin on one strand; blunt
[4] = target: T3, BtAraR V92D; assay: EMSA; 1 uM protein; EMSA: 20 mM Tris-HCl pH 8.0, 150 mM KCl, 5 mM MgCl2, 1 mM DTT, 0.05% NP-40, 2.5% glycerol, 37 C, 30 min; DNA 0.2 nM (0.16 nM in Fig S4), protein 0.25-1 uM; conditions: protein: recombinant; label: 5'-biotin on one strand; blunt

Row | stoichiometry N [1] | Molecule | binding result [2] | binding result [3] | binding result [4]
1 | 2 | BtAraR (BT0354), NrtR family transcription factor of Bacteroides thetaiotaomicron (natural protein) | – | – | –
2 | – | BT0356 (araM) promoter 65-bp (dsDNA) DNA 1: CCCCCATATAAGAGTGTATTTGATACACCAAACAAAAGTGTTACTTTTACACCCAAAATACCCCC DNA 2: GGGGGTATTTTGGGTGTAAAAGTAACACTTTTGTTTGGTGTATCAAATACACTCTTATATGGGGG | binds | binds | no binding
